The results in this text go back to publication PMC8532503 (Science (New York, N.Y.), 2021).

The target in this assay is Full-length ectodomain of human LRP1 (LRP1-ECD) (human, UniProt Q07954-1 20-4414). Nature of the assay: SEC.
Sequence of Full-length ectodomain of human LRP1 (LRP1-ECD) (Q07954 20-4414): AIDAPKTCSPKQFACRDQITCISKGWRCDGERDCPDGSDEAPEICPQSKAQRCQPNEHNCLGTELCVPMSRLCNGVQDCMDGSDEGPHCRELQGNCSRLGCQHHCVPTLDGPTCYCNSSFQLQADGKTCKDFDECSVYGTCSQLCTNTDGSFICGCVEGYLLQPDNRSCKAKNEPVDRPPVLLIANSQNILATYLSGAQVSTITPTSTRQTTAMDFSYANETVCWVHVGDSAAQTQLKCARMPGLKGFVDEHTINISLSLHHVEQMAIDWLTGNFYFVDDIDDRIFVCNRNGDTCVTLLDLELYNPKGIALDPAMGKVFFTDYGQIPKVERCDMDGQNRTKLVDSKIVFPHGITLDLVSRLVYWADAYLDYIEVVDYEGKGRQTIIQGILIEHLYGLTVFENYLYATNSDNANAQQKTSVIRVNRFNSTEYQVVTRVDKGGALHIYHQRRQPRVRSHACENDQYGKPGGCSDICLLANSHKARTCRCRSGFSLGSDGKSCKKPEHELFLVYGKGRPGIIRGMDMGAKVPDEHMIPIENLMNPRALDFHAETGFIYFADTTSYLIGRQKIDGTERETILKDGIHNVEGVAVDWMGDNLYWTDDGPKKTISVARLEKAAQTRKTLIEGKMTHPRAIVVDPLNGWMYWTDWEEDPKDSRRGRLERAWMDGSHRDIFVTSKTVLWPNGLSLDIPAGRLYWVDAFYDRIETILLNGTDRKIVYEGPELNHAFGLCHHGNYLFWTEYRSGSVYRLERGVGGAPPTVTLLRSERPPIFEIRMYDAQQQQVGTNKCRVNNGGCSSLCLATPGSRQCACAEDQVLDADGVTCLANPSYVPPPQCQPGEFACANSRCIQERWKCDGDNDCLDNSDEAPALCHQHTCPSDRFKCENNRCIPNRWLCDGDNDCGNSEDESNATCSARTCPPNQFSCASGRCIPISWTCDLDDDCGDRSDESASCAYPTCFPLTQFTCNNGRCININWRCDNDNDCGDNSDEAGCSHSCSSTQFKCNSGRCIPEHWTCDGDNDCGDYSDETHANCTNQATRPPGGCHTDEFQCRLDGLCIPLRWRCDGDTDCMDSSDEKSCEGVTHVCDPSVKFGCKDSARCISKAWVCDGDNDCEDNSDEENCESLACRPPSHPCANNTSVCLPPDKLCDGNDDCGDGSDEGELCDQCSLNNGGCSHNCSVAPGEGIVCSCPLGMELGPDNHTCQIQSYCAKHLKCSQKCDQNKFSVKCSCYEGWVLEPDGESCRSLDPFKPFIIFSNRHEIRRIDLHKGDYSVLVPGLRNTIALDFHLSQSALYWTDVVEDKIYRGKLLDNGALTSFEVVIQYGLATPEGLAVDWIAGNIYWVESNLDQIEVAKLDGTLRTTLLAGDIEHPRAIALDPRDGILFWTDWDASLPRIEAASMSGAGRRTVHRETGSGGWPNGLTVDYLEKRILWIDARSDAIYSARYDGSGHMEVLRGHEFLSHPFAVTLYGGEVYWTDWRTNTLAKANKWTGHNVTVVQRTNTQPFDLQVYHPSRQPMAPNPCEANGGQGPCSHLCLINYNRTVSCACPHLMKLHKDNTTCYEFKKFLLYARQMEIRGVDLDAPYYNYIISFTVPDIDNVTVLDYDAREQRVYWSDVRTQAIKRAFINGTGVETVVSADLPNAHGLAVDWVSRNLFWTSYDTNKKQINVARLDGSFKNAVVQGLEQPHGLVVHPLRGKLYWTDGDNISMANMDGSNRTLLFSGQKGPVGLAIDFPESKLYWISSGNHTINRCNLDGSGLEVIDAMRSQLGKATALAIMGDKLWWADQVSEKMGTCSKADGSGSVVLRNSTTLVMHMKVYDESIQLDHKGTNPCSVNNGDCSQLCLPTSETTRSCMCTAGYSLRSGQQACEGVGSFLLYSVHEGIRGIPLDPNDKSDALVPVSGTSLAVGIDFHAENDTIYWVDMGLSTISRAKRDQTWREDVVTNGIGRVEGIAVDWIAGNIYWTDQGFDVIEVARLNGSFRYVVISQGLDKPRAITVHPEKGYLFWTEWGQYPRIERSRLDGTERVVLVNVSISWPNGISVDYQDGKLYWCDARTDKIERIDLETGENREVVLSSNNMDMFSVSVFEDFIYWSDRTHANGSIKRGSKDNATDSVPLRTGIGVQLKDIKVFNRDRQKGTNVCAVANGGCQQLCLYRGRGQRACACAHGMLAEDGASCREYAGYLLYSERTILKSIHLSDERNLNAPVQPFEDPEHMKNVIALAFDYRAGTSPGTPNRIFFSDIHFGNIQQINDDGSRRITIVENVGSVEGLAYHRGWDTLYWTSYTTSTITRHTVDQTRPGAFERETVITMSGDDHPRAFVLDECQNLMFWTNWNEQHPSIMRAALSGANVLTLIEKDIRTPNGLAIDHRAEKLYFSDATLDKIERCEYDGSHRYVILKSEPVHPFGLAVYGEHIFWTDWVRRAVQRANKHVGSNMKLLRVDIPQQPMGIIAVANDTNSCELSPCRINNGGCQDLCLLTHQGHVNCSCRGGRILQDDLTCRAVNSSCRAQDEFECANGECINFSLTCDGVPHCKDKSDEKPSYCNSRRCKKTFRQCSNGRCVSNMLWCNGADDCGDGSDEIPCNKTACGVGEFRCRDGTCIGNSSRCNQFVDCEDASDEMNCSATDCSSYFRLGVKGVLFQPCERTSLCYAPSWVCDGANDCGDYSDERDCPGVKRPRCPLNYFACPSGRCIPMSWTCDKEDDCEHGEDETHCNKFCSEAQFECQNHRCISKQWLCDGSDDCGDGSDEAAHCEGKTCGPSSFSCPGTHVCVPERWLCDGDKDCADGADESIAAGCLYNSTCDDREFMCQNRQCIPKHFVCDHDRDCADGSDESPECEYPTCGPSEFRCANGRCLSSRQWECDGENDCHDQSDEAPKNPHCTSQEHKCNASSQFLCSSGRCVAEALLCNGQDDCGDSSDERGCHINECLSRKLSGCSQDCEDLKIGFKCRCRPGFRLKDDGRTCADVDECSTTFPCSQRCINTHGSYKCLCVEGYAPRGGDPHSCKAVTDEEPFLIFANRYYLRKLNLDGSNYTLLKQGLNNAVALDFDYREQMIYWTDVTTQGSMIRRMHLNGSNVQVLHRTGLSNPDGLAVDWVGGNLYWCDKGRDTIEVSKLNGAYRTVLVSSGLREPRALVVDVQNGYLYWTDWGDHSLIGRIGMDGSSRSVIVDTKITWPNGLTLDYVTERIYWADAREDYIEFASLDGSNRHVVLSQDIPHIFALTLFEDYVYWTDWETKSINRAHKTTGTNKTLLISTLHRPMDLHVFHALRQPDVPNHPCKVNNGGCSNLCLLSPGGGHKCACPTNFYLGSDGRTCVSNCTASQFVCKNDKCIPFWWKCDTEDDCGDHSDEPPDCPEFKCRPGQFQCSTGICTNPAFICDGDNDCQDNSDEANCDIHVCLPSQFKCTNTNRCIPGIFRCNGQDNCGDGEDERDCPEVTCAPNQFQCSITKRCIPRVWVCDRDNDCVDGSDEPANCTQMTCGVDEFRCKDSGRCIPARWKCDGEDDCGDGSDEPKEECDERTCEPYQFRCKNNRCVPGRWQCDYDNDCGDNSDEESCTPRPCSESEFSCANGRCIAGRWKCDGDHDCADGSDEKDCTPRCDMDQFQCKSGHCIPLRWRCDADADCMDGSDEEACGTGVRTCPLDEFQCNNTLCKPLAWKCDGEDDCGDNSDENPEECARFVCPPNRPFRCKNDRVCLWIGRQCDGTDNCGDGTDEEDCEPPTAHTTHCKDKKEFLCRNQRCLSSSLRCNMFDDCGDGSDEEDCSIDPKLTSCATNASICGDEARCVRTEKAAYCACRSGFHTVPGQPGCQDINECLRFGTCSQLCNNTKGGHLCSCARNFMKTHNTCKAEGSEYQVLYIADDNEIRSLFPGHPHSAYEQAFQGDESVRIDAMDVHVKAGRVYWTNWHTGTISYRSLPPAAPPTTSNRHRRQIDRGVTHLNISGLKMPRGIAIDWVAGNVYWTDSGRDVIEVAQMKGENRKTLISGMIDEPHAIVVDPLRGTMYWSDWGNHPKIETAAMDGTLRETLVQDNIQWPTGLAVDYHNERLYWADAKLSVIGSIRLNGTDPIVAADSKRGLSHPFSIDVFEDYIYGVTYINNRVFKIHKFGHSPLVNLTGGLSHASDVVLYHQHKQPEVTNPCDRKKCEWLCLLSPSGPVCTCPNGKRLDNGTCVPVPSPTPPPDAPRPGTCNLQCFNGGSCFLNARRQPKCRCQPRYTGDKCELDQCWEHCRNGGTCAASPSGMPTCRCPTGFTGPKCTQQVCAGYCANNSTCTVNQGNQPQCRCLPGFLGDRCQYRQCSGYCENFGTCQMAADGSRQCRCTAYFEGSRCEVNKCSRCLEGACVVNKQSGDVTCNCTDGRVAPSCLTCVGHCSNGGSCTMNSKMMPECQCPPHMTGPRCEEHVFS

B1: Recombinant mouse SAA1 (purified SAA1, tag state not stated) (natural protein, UniProt P05366 20-122, looked up)
chain: GFFSFVHEAFQGAGDMWRAYTDMKEANWKNSDKYFHARGNYDAAQRGPGGVWAAEKISDGREAFQEFFGRGHEDTIADQEANRHGRSGKDPNYYRPPGLPDKY
Turning to B1, the binding result is on record as “binds”.
